{
  "source": "patent US20180195056",
  "data": [
    {"substance": "wheat (Triticum) Atg4 ortholog (trAtg4)", "values": [
      {"measurement": "protease concentration for significant cleavage, against its cognate substrate trAtg8 and the yeast substrate", "setting": "His14-xlGATE16-MBP", "result": "the Xenopus xlGATE16 substrate required drastically (>100-fold) higher trAtg4 concentrations for significant cleavage"},
      {"measurement": "substrate cleavage in protease titration (100 µM substrate, 1 h, 25° C.)", "setting": "His14-xlLC3B-MBP", "result": "xlLC3B cleavage by trAtg4 was only barely detectable"}
    ]}
  ]
}
